{"source": "the RNAGym collection of RNA variant scans (doi:10.1073/pnas.2313332121)", "parents": {"B1": {"name": "TPR 5TU (parent)", "chain": "GGAUCUUCUCGAUCUAACAAAAAAGACAAAUCUGCCACAAAGCUUGAGAGCAUCUUCGGAUGCAGAGGCGGCAGCCUUCGGUGGCGCGAUAGCGCCAACGUUCUCAACUAUGACACGCAAAACGCGUGCUCCGUUGAAUGGAGUUUAUCAUG"}}, "note": "Fewer inactive variants are shown than the library holds.", "data": [{"variants_of": "B1", "assay": "polymerase ribozyme fitness, log enrichment relative to wild type (log ratio); higher = more active; in vitro selection for triplet polymerase activity", "outline": "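Mutant libraries were PCR-built and transcribed for each subunit of a heterodimeric triplet polymerase ribozyme and selected for one round in triplicate at −7 °C, frozen, before gel excision of extended constructs and streptavidin-bead capture. Input and output libraries were Illumina-sequenced, keeping genotypes with ≥10 input reads and ≥1 read per output. Fitness is a logarithmic ratio of genotype to wild-type enrichment, in base 2, using inverse-variance-weighted replicate averages.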", "values": [{"variant": "G124C U135A", "polymerase ribozyme fitness (log ratio)": -1.84}, {"variant": "G50U C87U G92A", "polymerase ribozyme fitness (log ratio)": 0.244}, {"variant": "C76U G84U G143A", "polymerase ribozyme fitness (log ratio)": -2.57}, {"variant": "C76G U78C C93U C103G A137G", "polymerase ribozyme fitness (log ratio)": "≤ -4.2"}, {"variant": "A19U A30U G62C G65C C96A", "polymerase ribozyme fitness (log ratio)": "≤ -4.2"}, {"variant": "G88C A97U C103A G128C U134C U146C", "polymerase ribozyme fitness (log ratio)": "≤ -4.2"}, {"variant": "U13C C69A C87G A97U A147U", "polymerase ribozyme fitness (log ratio)": "≤ -4.2"}, {"variant": "C18G G83C C85U C96G A115C C116G U134A", "polymerase ribozyme fitness (log ratio)": "≤ -4.2"}, {"variant": "A20G C87U U148A", "polymerase ribozyme fitness (log ratio)": -3.21}, {"variant": "A29C A41G A97C A122U", "polymerase ribozyme fitness (log ratio)": "≤ -4.2"}, {"variant": "C18G A60C G84U C125U", "polymerase ribozyme fitness (log ratio)": -3.76}, {"variant": "C114U U148G", "polymerase ribozyme fitness (log ratio)": -3.06}, {"variant": "A52C C72U C96A C123U", "polymerase ribozyme fitness (log ratio)": -2.72}, {"variant": "A19C C27G G70A C76U G94U C103U A120U C129A U148C", "polymerase ribozyme fitness (log ratio)": "≤ -4.2"}, {"variant": "G65A C75A G81U G94A C105U G140U", "polymerase ribozyme fitness (log ratio)": -3.7}, {"variant": "U90C C99G A138G", "polymerase ribozyme fitness (log ratio)": "≤ -4.2"}, {"variant": "C35U G50C", "polymerase ribozyme fitness (log ratio)": -3.9}, {"variant": "G92A U101G C149U", "polymerase ribozyme fitness (log ratio)": -3.56}, {"variant": "A21U A22U U53G", "polymerase ribozyme fitness (log ratio)": -0.816}, {"variant": "C54U U55A C76A A91U C95A C103A C131G A138U", "polymerase ribozyme fitness (log ratio)": "≤ -4.2"}, {"variant": "C75G U134G", "polymerase ribozyme fitness (log ratio)": -4}, {"variant": "C93A C132A", "polymerase ribozyme fitness (log ratio)": "≤ -4.2"}, {"variant": "A52G U104A A122G U139G", "polymerase ribozyme fitness (log ratio)": -1.23}, {"variant": "U15C", "polymerase ribozyme fitness (log ratio)": 0.917}, {"variant": "A40C G62U A119U", "polymerase ribozyme fitness (log ratio)": -0.408}, {"variant": "A19G U90G", "polymerase ribozyme fitness (log ratio)": "≤ -4.2"}, {"variant": "C14G C38A A60G U77A U78C C87G C125A U139G", "polymerase ribozyme fitness (log ratio)": "≤ -4.2"}, {"variant": "G88C C114U G141U", "polymerase ribozyme fitness (log ratio)": "≤ -4.2"}, {"variant": "G59C A120U A122C A147G", "polymerase ribozyme fitness (log ratio)": -1.22}, {"variant": "A66C G74U G81C C87A C118A G124A", "polymerase ribozyme fitness (log ratio)": "≤ -4.2"}, {"variant": "U56C G81U G92U C108G", "polymerase ribozyme fitness (log ratio)": "≤ -4.2"}, {"variant": "G46A G58A G83C", "polymerase ribozyme fitness (log ratio)": -1.17}, {"variant": "A3U C10U U61A G65A A66C", "polymerase ribozyme fitness (log ratio)": "≤ -4.2"}, {"variant": "G70A A147U", "polymerase ribozyme fitness (log ratio)": -2.67}, {"variant": "G25C C36U C57A", "polymerase ribozyme fitness (log ratio)": -3.99}, {"variant": "G42A A60G C87G", "polymerase ribozyme fitness (log ratio)": "≤ -4.2"}, {"variant": "A30G C76U", "polymerase ribozyme fitness (log ratio)": -3.9}, {"variant": "C75G U82G A91C", "polymerase ribozyme fitness (log ratio)": "≤ -4.2"}, {"variant": "C18U A29U G68A C85U", "polymerase ribozyme fitness (log ratio)": "≤ -4.2"}, {"variant": "G25U G83A C95A A138U U139C", "polymerase ribozyme fitness (log ratio)": "≤ -4.2"}, {"variant": "A20C A49G G81A C87G U104G A138C", "polymerase ribozyme fitness (log ratio)": "≤ -4.2"}, {"variant": "A12G A26G G94C C95A A137G", "polymerase ribozyme fitness (log ratio)": -4}, {"variant": "A41C G46U C76A U102A C131G", "polymerase ribozyme fitness (log ratio)": "≤ -4.2"}, {"variant": "C27U A41C A52C C54G C95G U102A", "polymerase ribozyme fitness (log ratio)": "≤ -4.2"}, {"variant": "C54U U61A G84U C108G G140U", "polymerase ribozyme fitness (log ratio)": "≤ -4.2"}, {"variant": "C5A A17U U45A G71C G84A A89U U104G U145G", "polymerase ribozyme fitness (log ratio)": "≤ -4.2"}, {"variant": "A110G C129U U144C", "polymerase ribozyme fitness (log ratio)": "≤ -4.2"}, {"variant": "U90A C99U C103G G140A", "polymerase ribozyme fitness (log ratio)": "≤ -4.2"}, {"variant": "A37U U45A G46C C85U C105U U144A", "polymerase ribozyme fitness (log ratio)": "≤ -4.2"}, {"variant": "C57A C76U", "polymerase ribozyme fitness (log ratio)": 0.264}, {"variant": "A47G A91G A97G A98C U134G U139A", "polymerase ribozyme fitness (log ratio)": "≤ -4.2"}, {"variant": "A29U C51A G94A", "polymerase ribozyme fitness (log ratio)": "≤ -4.2"}, {"variant": "A22C A39C U53A G68A A91U U146A", "polymerase ribozyme fitness (log ratio)": "≤ -4.2"}, {"variant": "A28G A37C U55A U90C A91G", "polymerase ribozyme fitness (log ratio)": "≤ -4.2"}, {"variant": "A37G U45A C96U", "polymerase ribozyme fitness (log ratio)": "≤ -4.2"}, {"variant": "C36U G50C C85A A110C", "polymerase ribozyme fitness (log ratio)": "≤ -4.2"}, {"variant": "C18G G34U C57U C96U A147U", "polymerase ribozyme fitness (log ratio)": -2.53}, {"variant": "C5G C10U A49G U56A G74C C85U U90G C93U G100U A115C G141A", "polymerase ribozyme fitness (log ratio)": "≤ -4.2"}, {"variant": "C14G U31G", "polymerase ribozyme fitness (log ratio)": -2.12}, {"variant": "G50U G84A A91U C116A", "polymerase ribozyme fitness (log ratio)": "≤ -4.2"}, {"variant": "C5G C32U C96U A122G", "polymerase ribozyme fitness (log ratio)": -3.38}, {"variant": "C35U A47C G80U C87U", "polymerase ribozyme fitness (log ratio)": -3.9}, {"variant": "U53A C54U", "polymerase ribozyme fitness (log ratio)": -0.319}, {"variant": "A39U G117U", "polymerase ribozyme fitness (log ratio)": -1.04}, {"variant": "C5U U45A G50U G86C C96U", "polymerase ribozyme fitness (log ratio)": "≤ -4.2"}, {"variant": "A19G G94A", "polymerase ribozyme fitness (log ratio)": -1.06}, {"variant": "G67C G84A C99U C105A A115C A137C G141A", "polymerase ribozyme fitness (log ratio)": "≤ -4.2"}, {"variant": "C93G C123U G141U", "polymerase ribozyme fitness (log ratio)": -2.27}, {"variant": "C10G A16U C54U U56A G59A G88C C105G A110G A119U C123A U145G U148C", "polymerase ribozyme fitness (log ratio)": "≤ -4.2"}, {"variant": "C43U G46C G83U", "polymerase ribozyme fitness (log ratio)": "≤ -4.2"}, {"variant": "A21G C27U A52C C93G A110U G152U", "polymerase ribozyme fitness (log ratio)": "≤ -4.2"}, {"variant": "A89C C99U C114U", "polymerase ribozyme fitness (log ratio)": -2.63}, {"variant": "C14G G83A U90G G92U U102G C105A C118U A120C U146G", "polymerase ribozyme fitness (log ratio)": "≤ -4.2"}, {"variant": "U61G U82C A89U A120U U135A", "polymerase ribozyme fitness (log ratio)": -2.52}, {"variant": "A40U A47C A89U U134G", "polymerase ribozyme fitness (log ratio)": -2.3}, {"variant": "U6G U134C", "polymerase ribozyme fitness (log ratio)": -0.128}, {"variant": "C63G C93A A98G C116U G140C", "polymerase ribozyme fitness (log ratio)": "≤ -4.2"}, {"variant": "C85A C95G A115G", "polymerase ribozyme fitness (log ratio)": -3.81}, {"variant": "G92U A107U", "polymerase ribozyme fitness (log ratio)": -3.2}, {"variant": "U4G U7G U13G C43A C54U U78G G94C", "polymerase ribozyme fitness (log ratio)": "≤ -4.2"}, {"variant": "A20C A26C A30C U44G G50A A66C", "polymerase ribozyme fitness (log ratio)": "≤ -4.2"}, {"variant": "G62C C63U C79A C85U A98U C99U C131A U135C U144A", "polymerase ribozyme fitness (log ratio)": "≤ -4.2"}, {"variant": "U31G G58C G140C", "polymerase ribozyme fitness (log ratio)": -4}, {"variant": "C95U C99G U104G A110G C116A A142U", "polymerase ribozyme fitness (log ratio)": "≤ -4.2"}]}]}
